Measured values reported in the DeepSol protein solubility set.

Assay: soluble on expression in E. coli; label from the status in PepcDB or PDB records
With “MARPLKQGIDYFPLSVDFLRDIKVRKIKRACGPYTVEILLCLLGNIYRETGYYIGWDEDTMFLVADEVGAKEGLVEETVNKAVQVGFFNQEKFNEYRILTSNGIQKRYLEATKKRKEVVISDIYLVNDTIKDEETLVNGVDNEQSKVNKSKVDKSKVNKNNKEKPAVQLSSEKDFLENPLGDKKTAELIAYYSKNVSLATPVNMTNLAYDLKDFNGDLDLLKEAINICSSNVKTYAYFAGILKQWRANGINTHADFLKKVNKKSKQKNKRDSEPPLNDYSGLF” the “soluble on expression in E. coli” value was “not soluble”.
For “MGSDKIHHHHHHMLHIVNNLRDSFTPGTPHQAALAQIFPQDSEKQTMDKRDLSAIFRERLKLLLTRSDLNQSAFASAVGIDRSALSQLMSGASTRLPRAETLLNIAAEFKVSLDWLLGLSQDEGVTGEIRESLEIEEAPDGFDRTLLAKWFAEAAGTKIRYVPAGIPDLLRTRALVDYEANITNRSRLAQASETQYRIEYNRRPETDMEVCMPRHTLEIFARGLGVWDRFPEADRRQQLAHMATLLDDLYPTFRLFLYDGRMRYSIPLTIFGPYRAAIYVGDMYVVLNATQPVQALTQHFDNLIRAADVNPHEAAAFARNLAGMSFPSGSV”, the “soluble on expression in E. coli” value was “not soluble”.
For “MSLNKRKGILAIGAHPDDIELGCGASLARLAQKGIYIATVVMTTGNSGVDGIIDRHEESRNALKILGCHQTIHLNFADTRAHLQLNDMISALENIIKNQIPSDVEIIRVYTMHDADRHQDHLAVYQASMVACRAIPQILGYETPSTWLSFMPQVFESVKEEYFSLKLTALKKHKSQSQRDYMRPERLRAVAQFRGQQVNSDLGEGFVIHKMILEGHHHHHH”, the “soluble on expression in E. coli” value was “not soluble”.
For “MMVMTDKFNYEELGLKVGLEIHRQLDTKKLFSPVPSELSDKVEFTFQRRLRPTMSELGEIDPAALEEFKKGRVYVYEGNYELTDLVYMDEEPPRGPDREALEVALQIAYLLNAKPVDEVYYMRKIVIDGSNVSGFQRTAIIATDGKVETPWGAVGIPTICLEEDAARIIERKDKEVIYRLDRLGIPLIEISTTPDIHHPEQAKVVAKFIGDALRATKKVKRGLGTIRQDLNVSIKGGARIEIKGVQELDMIPIIIEREVERQLNLLKIRDELRKRGVKPKDIKEEFYDVTDIFENTKSKIIARVIKKGGKVLAIKLPKFRGLIGREIQPGRRLGTEFADRAKKYVPGIFHIDELPNYGISQEEVNKVIERLNLSEEDAFVLVAAEEEKAKNALREVIKRAREAIEGVPEETRRALPDGNTEYMRPLPGKARMYPETDIPPLRIPDDLKKKIKENLPELPQAKVERYVKEYKLDRSLAQTLVDDERDELFEELVSMGVKPSLAASILVVVLKGLRKEVPIENVTDEHIREAFQLYLEGKIAKEAFEEIFKELARNPSKSAREVAEEKGLTLLSEEEVTRIIEEVIQQNIEVVKAKGMGAMGLIMGRVMAKVRGKADGKLVSQIVRRKLQEISGG”, the “soluble on expression in E. coli” value was “soluble”.
In the case of “MGSDKIHHHHHHMEINTEIAIAWMSARQGKVSYSMDYRDGPNSYDCSSSVYYALRSAGASSAGWAVNTEYMHDWLIKNGYELIAENVDWNAVRGDIAIWGMRGHSSGAGGHVVMFIDPENIIHCNWANNGITVNNYNQTAAASGWMYCYVYRLKSGASTQGKSLDTLVKETLAGNYGNGEARKAVLGNQYEAVMSVINGKTTTNQKTVDQLVQEVIAGKHGNGEARKKSLGSQYDAVQKRVTELLKKQPSEPFKAQEVNKPTETKTSQTELTGQATATKEEGDLSFNGTILKKAVLDKILGNCKKHDILPSYALTILHYEGLWGTSAVGKADNNWGGMTWTGQGNRPSGVTVTQGSARPSNEGGHYMHYASVDDFLTDWFYLLRAGGSYKVSGAKTFSEAIKGMFKVGGAVYDYAASGFDSYIVGASSRLKAIEAENGSLDKFDKATDIGDGSKDKIDITIEGIEVTINGITYELTKKPV”, the “soluble on expression in E. coli” value is reported as “not soluble”.
With “MISSIRLDLFRTKVFVMPLKFPLSICLLGTFLVTSAQAQEAVKGVVELFTSQGCASCPPADEALRKMIQKGDVVGLSYHVDYWNYLGWTDSLASKENTERQYGYMRALGRNGVYTPQAILNGRDHVKGADVRGIYDRLDAFKREGQGLNVPVSSKFAGDEVEIDIGAGNGKADVVVAYFTREQTVDVQKGENQGKKMSYWHSVYDVQTVGMWDGSPMTVKLPASVVAKVKKGGCAVLLQTANASGDPAAIVGASILLGNETQLEHHHHHH” the “soluble on expression in E. coli” value was “soluble”.
In the case of “MGSDKIHHHHHHMRICPVPRSAPAGCARIRCLRRCAVFGRSCPKLGLWSSGARTLSHPPCADVNWPNTLCAQHVACALRSHCLTLRAPHALLGRAVRKAGDLMTTAGFQSIDAVQSELSEAGYVCGRALATVVFLSTRLGRPLFLEGEAGVGKTEIAKALAAVTGRPLIRLQCYEGLDAASAVYEWNFAAQMMAIRMAESAGQSDREALQAELFSQDYLIARPLLQAMQPDARGTPILLIDELDRTDAPFEAFLLEALSDFQVTIPELGTIRAPEPPMVILTSNRTREVHDALKRRCLYHWVDYPDFDRELEILTAQVPTASEALSRQVVAFVQSLRTEDLFKKPGVAETIDWANCLLALDVVNLSPETIADTLGALLKYQDDIARLQGSEAKRLLDEARSLLQEH”, the “soluble on expression in E. coli” value is reported as “not soluble”.
In the case of “MSGSTHTTERGTGRAAEAAPPATDRFACYVYGIVPEDVEVSPGTVGVGEPAGQVTLVRHGEIAALVSPVDVDRPLGRASDLVAHERLLDGAAAEVPVLPFRFGAVLTSPEAVVEELLAPHHDQFAAALRQLEGKAQHVLKARYAERPVLLEILRENAEARRLRDRIRDLPEDATRTERIRLGELITQAIEAKREADTQAVLDRFASCTVAANVRDPSHERDAAHVAFLVEHAKADEFAEAVEELSDEWADRVEVRVLGPMAPYDFVVAEG”, the “soluble on expression in E. coli” value is reported as “not soluble”.
With “MGSDKIHHHHHHMNKNEIANLKMQGFILQNDGKHFALRIKTDAGCMDSEKIDKLSEISKKYGRNYISFTVRLCVEIPWINYEDIPKIKEELKNLSLISGGTGNTVRPLVACKGTVCTHGLIDSQKICNELDSLFFGKKLPHKFKIGISGCPNNCAKAQLNDIGIIGQRIPKINEENCNGCTLCLKSCSVDAITIVDKKAVIDYEKCVNCGKCGKSCKRKCISLKDGVLISVGGKFGKKYKIGENIGIYDAPNLEKIVSEIMDYFKENADSHERFGDTIDRTGISSLKEKLKDY” the “soluble on expression in E. coli” value was “not soluble”.
In the case of “MVDREWVLKIAKLARLELKEEEIEVFQKQLSDILDFIDQLKELDTENVEPYIQEFEETPMREDEPHPSLDREKALMNAPERKDGFFVVPRVVEV”, the “soluble on expression in E. coli” value is reported as “soluble”.
For “MVRVCACLIVKNEAAHLARCLGSVQPWVDDIVVVDTGSTDETPAIARQFTERLFTFPWQDDFAAARNYSLEQATGDWILVIDADEVLVTLQEPPVPLGQQLAGSPFTAYQLLRREIGTGEQFSDFAIVRLFRNLPTLRYQGRFHEQLVSTAAAPLTIGTLETLRIDHYGYQPAQIQAKMRDRNIPILERIRASEGLPLHLLFALADMYQAVNNPVEAENCYQELFDRLLPHLLSGQLPENAPGALPEILNQLGRRLLATGDHDTLQLLCQQGLAWFPTYPPLNDLAGRWLMTLGFPLGATAYFEYCLELGRTNGYSKQMIFPLGYVREIAAEQLGRAYEALGDRERAAAAFAQAAALRQGKAHPQLEHHHHHH”, the “soluble on expression in E. coli” value was “soluble”.
In the case of “EISLNGYGRFGLQYVEDRGVGLEDTIISSRLRINIVGTTETDQGVTFGAKLRMQWDDGDAFAGTAGNAAQFWTSYNGVTVSVGNVDTAFDSVALTYDSEMGYEASSFGDAQSSFFAYNSKYDASGALDNYNGIAVTYSISGVNLYLSYVDPDQTVDSSLVTEEFGIAADWSNDMISLAAAYTTDAGGIVDNDIAFVGAAYKFNGGGGPKLAKMEKARGGGGDAGTVGLNWYDNGLSTAGDQVTLYGNYAFGATTVRAYVSDIDRAGADTAYGIGADYQFAEGVKVSGSVQSGFANETVADVGVRFDF”, the “soluble on expression in E. coli” value is reported as “soluble”.
In the case of “MGRFPSWVLVADWPAPPGVMVLSTLRGGPGVSVAPFDRLNLGNCSGVAGDAPVCVERNRSRLVEMLGLPSVPHWLRQVHGVEVLRVDALLQSIARVVEPTADAAVTSVVGAVLAILTADCLPVVLAAVDGSEIGVVHAGWRGLADDVLGRTVAALRTSPEYLQAWLGPAAGPQAYEVGVDVYAAFVERDSGAACAFSVTRPGHWYVDLYALARQRLMRAGLSAVSIYGGGLCTISDPQRFFSHRRDRRSGRFATLAWIGC”, the “soluble on expression in E. coli” value is reported as “soluble”.
With “MAIKNAFYAQSGGVTAVINASAAGLLETARAHSDKIGKVYAGRNGIIGALTEDLIDTSAESTEAIRALRHTPSGAFGSCRYKLKSLEDNRREYERLIEVFKAHDIGYFFYNGGGDSADTCLKVSQLAGTLGYPIQAIHVPKTVDNDLPITDCCPGFGSVAKYIAVSMLEASFDVASMAKTSTKVFILEVMGRHAGWIAAAGGLASNEDHEVPIIILFPEVTFDQEKFLAKTDHYVKEYGYCTVVVSEGVKGTDGKFLSDQGLRDAFGHAQLGGVAPVIANIVKNGLGLKYHWGVADYLQRAARHIASGTDVEQAYAMGKAAVEYAIAGHNSVMPTIERISSSPYAWKTGMVELSKVANVEKMMPADFISEDGFGITGKCREYLSPLIEGEDYPPYKNGLPDYVRLKNVAVTKKLAEFKILEHHHHHH” the “soluble on expression in E. coli” value was “not soluble”.
For “SKEDCLPSSHVPISDSKSIQKSELLGLLKTYNCYHEGKSFQLRHREEEGTLIIEGLLNIAWGLRRPIRLQMQDDREQVHLPSTSWMPRRPSCPLKEPSPQNGNITAQGPSIQPVHKAESSTDSSGPLEEAEEAPQLMRTKSDASCMSQRRPKCRAPGEAQRIRRHRFSINGHFYNHKTSVFTPAYGSVTNVRVNSTMTTLQVLTLLLNKFRVEDGPSEFALYIVHESGERTKLKDCEYPLISRILHGPCEKIARIFLMEADLGVEVPHEVAQYIKFEMPVLDSFVEKLKEEEEREIIKLTMKFQALRLTMLQRLEQLVEAK”, the “soluble on expression in E. coli” value was “soluble”.
With “MADLLPPLTAAQVDAKTKVDEKVDYSNLPSPVPYEELHREALMSLKSDNFEGLRFDFTRALNQKFSLSHSVMMGPTEVPAQSPETTIKIPTAHYEFGANYYDPKLLLIGRVMTDGRLNARLKADLTDKLVVKANALITNEEHMSQAMFNFDYMGSDYRAQLQLGQSALIGATYIQSVTNHLSLGGEIFWAGVPRKSGIGYAARYETDKMVASGQVASTGAVVMNYVQKISDKVSLATDFMYNYFSRDVTASVGYDYMLRQARVRGKIDSNGVASALLEERLSMGLNFLLSAELDHKKKDYKFGFGLTVG” the “soluble on expression in E. coli” value was “not soluble”.
In the case of “MGSDKIHHHHHHMVNAAQAVMESSGQFHVEPEGVIRMSVPKAVGHFMIHPHLPEFLERYPKIDIQMLLEDRYVDLIDDGVDLALRITEQPPGGLMGRKLIDIDHLVCATPEYLSKHGTPNHPHDLKQHECIYLGEQASDSKWKFQQGNKSISVAVRGRYAANHTGVRLSAALQHLGIASLPYFVARHALQQGTLVQVLPDWYFKTYYSGGLWLLYPPTRHVQPKLSVLIQYLADKLAAEPTLFKLK”, the “soluble on expression in E. coli” value is reported as “not soluble”.
For “MSLAVDTSGEFMRHLYIEEGRTVCASATSRNRRPTSESPHSDDVVVVEGMLRGRPETRVHAMFDGFQGRHSAMWLAQNVMNYLNDLRDVNEEEITRQFERMDGDLRAANLPGGSSALIIFVRYEKKPTEARVVGRQIVPEGAKEFTSVAEALGGPLMPVVAMNFRRDPRAAKGIYTIHVASLGNSRCVLKSGRTAIHLSTPHTASSHKERHRVQAAGGVFTTVNGELLLGGVVPMTRAFGSFDFKKGGQGKLQQDLVSAVPDVTTFFAYPGDDIVAGTAGAFAHFRSHAAIAAAIALYPVSPETVLDAAKAMVVNAKRRKVTKNISTFVRHLPESRTRSQKMLEGTSGENGEEDFSIDRTNELTQALQAGFFSFLLYYEGHHHHHH”, the “soluble on expression in E. coli” value was “soluble”.
In the case of “MAKRVIIAGGNIAGTIVANRLVQKLEHEVNKGDVEIVALNKSDEHIYLPGQLLVGFGLETPGELVRKESELLDPRIKFLHGQKGTISKIDVANHSVQTADGVSHSYDYLVITTGVDYTWDEIPGYRSAAHTVYEYDDAIKMREALEKFDGGTIVVNTAKLPHRCPVAPLEVTLILDDYLRKRGIRDKTKIIYTYPVQGVFGRPITNKFMLRLFEQRGIEVHSPFTVTSVDPNNKVIESQEGEKLKFDMLIGIPPNMGAKVIEDSGIGDRRRWVPTDKFTLRMKDHSNVYVMGDATDLPVSKAGSTADFESYTVAHNIANDIKGNLGVKHYGGDVLCYIATGTDQATYIRFSYTMNESPPPPSYVHWWGKIMYNKMYWTVTAKAVVLEHHHHHH”, the “soluble on expression in E. coli” value is reported as “not soluble”.
